What was measured:
[1] = biological target: T1, human CAIX antigen (purchased from AcroBiosystems) (human, UniProt Q16790 38-414); assay: BLI (ForteBio), antibody on AHQ sensor, 100 nM antigen, 1:1 model
[2] = biological target: T2, human CAIX on CHO cells (CHO-hCAIX) (human, UniProt Q16790 38-459); assay: flow cytometry on CHO-hCAIX cells
Procedure: (§1) CHO cells overexpressing human CAIX (CHO-hCAIX cells) were generated by the pCHO1.0 vector (purchased from Invitrogen) transfected with CAIX cDNA. The cell density of the proliferated CHO-CAIX cells were adjusted to 2×10⁶ cells/ml, added at 100 μL/well to a 96-well flow cytometry plate, and centrifuged for later use. The purified CAIX antibody was diluted with PBS, and 3-fold dilution was started from 400 nM for a total of 12 points, and 100 μL/well of the above diluted sample was added to the above-mentioned 96-well flow cytometry plate with the cells, incubated at 4° C. for 30 min, and washed with PBS for two times. Goat F(ah′)2 Anti-Human IgG-Fc(PE) (purchased from Abeam, ab98596) diluted 100 times with PBS was added at 100 μL/well, incubated at 4° C. for 30 min, and washed twice with PBS. PBS was added at 100 μl/well to resuspend the cells, the cells were detected on a CytoFlex (Bechman) flow cytometer, and the corresponding MFI was calculated.
The purified humanized antibodies were subjected to the detection of binding capacity of the purified humanized nanobody to CHO-hCAIX at cell level according to the method described in Example 4, and the results were shown in FIG. 2 and Table 5.

[3] = biological target: T3, monkey CAIX on CHO cells (CHO-cyCAIX) (monkey); assay: flow cytometry on CHO-cyCAIX cells
T3 construct: whole, on cells
Procedure: as §1
In order to identify the affinity of the antibody to monkey CAIX (cyCAIX) at cell level, the cell strain was constructed according to the method described in Example 4, the affinity of the purified humanized antibody to CHO-cyCAIX was identified at cell level, and the results were shown in FIG. 3 and Table 6.

[4] = biological target: T1, human CAIX antigen (purchased from …); assay: BLI (ForteBio), method of Example 3
[5] = biological target: T4, murine CAIX on CHO cells (CHO-mCAIX) (mouse, UniProt Q8VHB5 32-437); assay: flow cytometry on CHO-mCAIX cells
T4 construct: whole, on cells; also called mouse CAIX
Procedure: as §1
In order to identify the affinity of the antibody to murine CAIX (mCAIX) at cell level, the cell stain was constructed according to the method described in Example 4, the affinity of the purified humanized antibody to CHO-mCAIX at cell level was identified, and the results were shown in FIG. 4 and Table 7.

[6] = biological target: T2, human CAIX on CHO cells (CHO-hCAIX); assay: flow cytometry on CHO-hCAIX cells, anti-human IgG-Fc PE
Procedure: as §1

[7] = biological target: T1, human CAIX antigen (purchased from …); assay: BLI (ForteBio), method of Example 3; second run, alongside the humanized antibodies (Table 4)

T4 sequence (Q8VHB5 32-437): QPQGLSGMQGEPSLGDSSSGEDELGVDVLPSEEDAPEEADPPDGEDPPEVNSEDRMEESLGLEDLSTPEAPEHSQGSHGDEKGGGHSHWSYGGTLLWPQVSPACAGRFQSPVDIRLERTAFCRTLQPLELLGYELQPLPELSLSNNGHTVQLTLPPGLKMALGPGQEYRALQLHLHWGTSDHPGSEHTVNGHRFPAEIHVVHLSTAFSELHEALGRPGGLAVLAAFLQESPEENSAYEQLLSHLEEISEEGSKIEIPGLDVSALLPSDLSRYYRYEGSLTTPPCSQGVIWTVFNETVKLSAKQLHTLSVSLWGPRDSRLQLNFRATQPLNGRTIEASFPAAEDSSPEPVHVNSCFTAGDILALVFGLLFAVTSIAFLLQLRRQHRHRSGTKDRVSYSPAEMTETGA

B1: H-YE-38 (Fc fusion)
chain: QVQLQESGGGLMQPGGSLTLSCAVPRFTLDYYAIGWFRQAPGKEREFVAAISWSGGTTQYSDSAKGRFTISRDNSKNTGYLQMNSLKPEDTATYYCAAGRQLEWRTYDYWGQGTQVTVSS
notes: also called CAIX nanobody H-YE-38; not shown: human IgG1 Fc segment
- Kd [1]: 0.529 nM
- koff [1]: 0.000513 s⁻¹
- kon [1]: 969000 M⁻¹ s⁻¹

B2: Hu-H-YE-05-D3 (Fc fusion)
chain: EVQLLESGGGLVQPGGSLRLSCAASGNSVNIFSFAAMSWYRQAPGKGLELVAVITTTGGTKYSDSVKGRFTISRDNSKNTLYLQMNSLRAEDTAVYYCNADYLQDYWGQGTQVTVSS
notes: also called humanized recombinant antibody from H-YE-05; not shown: human IgG1 Fc segment
- EC50 [2]: 4.46 nM
- EC50 [3]: 14.3 nM
- Kd [4]: 10.3 nM
- koff [4]: 0.00185 s⁻¹
- kon [4]: 179000 M⁻¹ s⁻¹
- EC50 [5]: 20.8 nM

B3: Hu-H-YE-23-D2 (Fc fusion)
chain: QVQLVESGGGLVQPGGSLRLSCSASGNSANIFSFASVAWYRQAPGKGLELVSVITSAGGTKYSDSVKGRFTISRDNSKNTLYLQMNSLRAEDTAVYYCNVDYLQDYWGQGTLVTVSS
notes: T0013 prints the label as Hu-H-YB-23-D2; also called Hu-H-YB-23-D2; humanized recombinant antibody from H-YE-23; not shown: human IgG1 Fc segment
- EC50 [2]: 8.71 nM
- EC50 [3]: 25.1 nM
- Kd [4]: 6.68 nM
- koff [4]: 0.00105 s⁻¹
- kon [4]: 158000 M⁻¹ s⁻¹
- EC50 [5]: 43.7 nM

B4: H-YE-03 (Fc fusion)
chain: QVQLQESGGGLVQPGGSLRLSCTASTSSFNFQTMGWYRQAPGKQRELVATITSRAITNYADSVKGRFTISRDNAAKTVSLQMNSLKPEDTAVYYCNAAWIGDYWGQGTQVTVSA
notes: also called CAIX nanobody H-YE-03; not shown: human IgG1 Fc segment
- EC50 [6]: 7.34 nM
- Kd [1]: 1.14 nM
- koff [1]: 0.00141 s⁻¹
- kon [1]: 1.24e+06 M⁻¹ s⁻¹

B5: H-YE-04 (Fc fusion)
chain: QVQLQESGGGLVQPGGSLRLSCTASTSSFNFQTLGWYRQAPGNQRELVATITSRAITNYADSVKGRFTISRDNAAKTVSLQMNSLKPEDTAVYYCNAAWIGDYWGQGTQVTVSS
notes: also called CAIX nanobody H-YE-04; not shown: human IgG1 Fc segment
- EC50 [6]: 7.78 nM
- Kd [1]: 0.282 nM
- koff [1]: 0.000259 s⁻¹
- kon [1]: 919000 M⁻¹ s⁻¹

B6: H-YE-24 (Fc fusion)
chain: QVQLQESGGGLVQPGGSLRLSCAASGNSVNIFRFAAMAWYRQAPGKQRELVAVITSAGGTKYSDSVKGRFTISRDNAKNTVLLQMNSLKPEDTAVYYCNADYLQDYWGQGTQVTVSS
notes: also called CAIX nanobody H-YE-24; not shown: human IgG1 Fc segment
- EC50 [6]: 3.06 nM
- Kd [1]: 1.34 nM
- koff [1]: 0.000798 s⁻¹
- kon [1]: 594000 M⁻¹ s⁻¹

B7: Hu-H-YE-05-D4 (Fc fusion)
chain: EVQLLESGGGLVQPGGSRRLSCAASGNSVNIFSFAAVAWYRQAPGKQRELVAVITTTGGTKYSDSVKGRFTISRDSSKNTVYLQMNSLRAEDTAVYYCNADYLQDYWGQGTQVTVSS
notes: as for B2
- EC50 [2]: 5.07 nM
- EC50 [3]: 13.5 nM
- Kd [4]: 7.84 nM
- koff [4]: 0.00142 s⁻¹
- kon [4]: 181000 M⁻¹ s⁻¹
- EC50 [5]: 58.8 nM

B8: H-YE-32 (Fc fusion)
chain: QVQLQESGGGLVQPGGSLRLSCAASGGARNIFSFAAMAWYRQAPGKQRELVAVITSAGGTQYSSSVKGRFTISRDNAKKTVLLQMNSLKPEDTAVYYCNADYYQDYWGQGTQVTVSS
notes: also called CAIX nanobody H-YE-32; not shown: human IgG1 Fc segment
- EC50 [2]: 14.6 nM
- EC50 [3]: 9.42 nM
- EC50 [6]: 6.14 nM
- Kd [4]: 0.369 nM
- koff [4]: 0.0001 s⁻¹
- kon [4]: 271000 M⁻¹ s⁻¹
- Kd [1]: 0.498 nM
- koff [1]: 0.000492 s⁻¹
- kon [1]: 988000 M⁻¹ s⁻¹
- EC50 [5]: 34.1 nM

B9: H-YE-26 (Fc fusion)
chain: QVQLQESGGGLVQAGGSLRLSCAASGNSVNIFRFATVAWYRQAPGEQRELVAVITSAGGTKYSDSVKGRFTISRDNAKNTVLLQMNSLKPEDTAVYYCNADFLQDYWGQGTQVTVSS
notes: also called CAIX nanobody H-YE-26; not shown: human IgG1 Fc segment
- EC50 [6]: 4.46 nM
- Kd [1]: 0.109 nM
- koff [1]: 0.000109 s⁻¹
- kon [1]: 999000 M⁻¹ s⁻¹

B10: H-YE-05 (Fc fusion)
chain: QVQLQESGGGLVQPGGSRRLSCAASGNSVNIFSFAAVAWYRQAPGKQRELVAVITTTGGTKYSDSVKGRFTISRDSAKNTVLLQMNSLKPEDTAVYYCNADYLQDYWGQGTQVTVSS
notes: also called CAIX nanobody H-YE-05; not shown: human IgG1 Fc segment
- EC50 [2]: 4.55 nM
- EC50 [3]: 7.32 nM
- EC50 [6]: 8.79 nM
- koff [4]: 0.00159 s⁻¹
- kon [4]: 155000 M⁻¹ s⁻¹
- Kd [7]: 10.3 nM
- Kd [1]: 0.557 nM
- koff [1]: 0.000662 s⁻¹
- kon [1]: 1.19e+06 M⁻¹ s⁻¹
- EC50 [5]: 31.7 nM

B11: H-YE-25 (Fc fusion)
chain: QVQLQESGGGLVQPGGSLRLSCAASGNSVNIFRFAAMAWYRQAPGKQRELVAVITTTGGTKYSDSVKGRFTISRDSAKNTVLLQMNSLKPEDTAVYYCNADYLQDYWGQGTQVTVSS
notes: also called CAIX nanobody H-YE-25; not shown: human IgG1 Fc segment
- EC50 [6]: 2.44 nM
- Kd [1]: 1.21 nM
- koff [1]: 0.00106 s⁻¹
- kon [1]: 875000 M⁻¹ s⁻¹

B12: H-YE-23 (Fc fusion)
chain: QVQLQESGGGLVQPGGSLRLSCAASGNSANIFSFASVAWYRQAPGKQRELVAVITSAGGTKYSDSVKGRFTISRDNAKNTILLQMNSLKPEDTAVYYCNVDYLQDYWGQGTQVTVSS
notes: also called CAIX nanobody H-YE-23; WYE-23; not shown: human IgG1 Fc segment
- EC50 [2]: 3.11 nM
- EC50 [3]: 6.55 nM
- EC50 [6]: 3.55 nM
- Kd [4]: 4.08 nM
- koff [4]: 0.000556 s⁻¹
- kon [4]: 136000 M⁻¹ s⁻¹
- Kd [1]: 0.218 nM
- koff [1]: 0.0002 s⁻¹
- kon [1]: 917000 M⁻¹ s⁻¹
- EC50 [5]: 38.1 nM

B13: H-YE-40 (Fc fusion)
chain: QVQLQESGGGLVQAGGSLRLSCAASGRTFSSYAMGWFRQAPGKEREFVATISWNGGSTYYADSVKGRFTISRDNAKNTVYLQMNSLKPEDTAVYYCAAEHDLGELAGTGYDYWGQGTQVTVSS
notes: also called CAIX nanobody H-YE-40; not shown: human IgG1 Fc segment
- EC50 [6]: 4.74 nM
- Kd [1]: 2.53 nM
- koff [1]: 0.00125 s⁻¹
- kon [1]: 495000 M⁻¹ s⁻¹

B14: Hu-H-YE-32-D6 (Fc fusion)
chain: QVQLVESGGGLVQPGGSLRLSCSASGGARNIFSFAAMAWYRQAPGKGLELVAVITSAGGTQYSSSVKGRFTISRDNSKKTLYLQMNSLRAEDTAVYYCNADYYQDYWGQGTQVTVSS
notes: also called humanized antibody from H-YE-32; not shown: human IgG1 Fc segment
- EC50 [2]: 9.61 nM
- EC50 [3]: 8.39 nM
- Kd [4]: 0.384 nM
- koff [4]: 0.0001 s⁻¹
- kon [4]: 260000 M⁻¹ s⁻¹
- EC50 [5]: 59.6 nM

B15: Hu-H-YE-32-D5 (Fc fusion)
chain: QVQLVESGGGLVQPGGSLRLSCSASGGARNIFSFAAMHWYRQAPGKGLELVAVITSAGGTYYADSVKGRFTISRDNSKKTLYLQMNSLRAEDTAVYYCNADYYQDYWGQGTQVTVSS
notes: T0013 prints the label as Hu-H-YB-32-D5; also called Hu-H-YB-32-D5; humanized antibody from H-YE-32; not shown: human IgG1 Fc segment
- EC50 [2]: 2.33 nM
- EC50 [3]: 22.7 nM
- Kd [4]: 8.2 nM
- koff [4]: 0.00177 s⁻¹
- kon [4]: 216000 M⁻¹ s⁻¹
- EC50 [5]: 552 nM

B16: H-YE-37 (Fc fusion)
chain: QVQLQESGGGLMHDGDSLRLSCAASGRTFSTYAMGWFRQAPGKEREFVAAISWSGGSTYYADSVKGRFTISRDNAKNTVYLQMNSLKPEDTAVYYCAAEGIYNSGSSYHDANGYDYWGQGTQVTVSS
notes: also called CAIX nanobody H-YE-37; not shown: human IgG1 Fc segment
- EC50 [6]: 6.07 nM
- Kd [1]: 2.39 nM
- koff [1]: 0.00249 s⁻¹
- kon [1]: 1.04e+06 M⁻¹ s⁻¹

B17: H-YE-33 (Fc fusion)
chain: QVQLQESGGGLVQPGGSLRLSCAASGGDFRFYDMGWYRQAPGKQRELVAGITTRGYTNYADVVKGRFTISRDNAKNTVYLEMNSLKPEDTAVYSCSASHFLGGRIDYWGQGTQVTVSS
notes: also called CAIX nanobody H-YE-33; not shown: human IgG1 Fc segment
- EC50 [6]: 2.78 nM
- Kd [1]: 2.04 nM
- koff [1]: 0.00139 s⁻¹
- kon [1]: 682000 M⁻¹ s⁻¹
